Test system: Diet-Induced Obese (DIO) mouse
Test: Diet-Induced Obese (DIO) mouse study: hFGF7 alone and with semaglutide, 28 days of dosing
Assay type: in vivo, C57Bl/6 mice
Details: DIO mice
Experimental: Obesity and insulin resistance, an early stage in the development of type 2 diabetes (also known as pre-diabetes), was induced in C57Bl/6 mice by feeding the mice with a high fat diet (Research Diets, Cat #D12492, 60% fat kcal) for 12 weeks starting at 6 weeks of age, and throughout the period of compound dosing. The mice were housed at 22-23° C. and abundant nestlets/bedding material was provided to allow the animals to maintain a microenvironment close to their thermoneutrality of 28-30° C., starting 2 weeks prior to the dosing period and for the full dosing period with a 12 h/12 h light/dark cycle. These environmental conditions are understood by those skilled in the art to reduce the stimulus for maintaining BAT, a thermogenic tissue that is recruited physiologically by cold stimulus, and permit a wider window for observing effects related to BAT recruitment.
Mice were dosed once per day by intraperitoneal injection (100 μl per mouse) with vehicle (9.6 mg/ml mannitol, 4.8 mg/ml sucrose, 0.37 mg/ml L-histidine, 0.025 mg/ml polysorbate 20 (Tween 20, CAS #9005-64-5), […], also referred to as EGS0501 in corresponding figures) dissolved in the vehicle for 28 days. In addition, some mice also received semaglutide (0.012 mg/kg=3 nmol/kg) every 3 days by intraperitoneal injection (100 μl per mouse) dissolved in the vehicle.
Body weight was recorded every day and body composition (fat and lean mass with EchoMRI) was assessed at the end of the study (University of Cincinnati Mouse Metabolic Phenotyping Center). At the end of the dosing period, animals were fasted for 6 hours and euthanized by CO2, blood was collected, and plasma was isolated and frozen at −20° C. Plasma glucose, insulin and leptin levels were assessed at baseline and at the end of the dosing period (mice were fasted for 6 hours before all plasma collection) (University of Cincinnati Mouse Metabolic Phenotyping Center). Insulin sensitivity was determined by HOMA-IR.
Data from in vivo mouse studies are presented as means±SEM. Significance values were evaluated based on the unpaired two-tailed t-test versus vehicle using GraphPad Prism version 7 or 8 (GraphPad Software, San Diego, CA). To assess synergistic effects of A and B, the combination A+B was compared to the sum of A alone and B alone. To quantify synergistic effects, we used percent changes from baseline when baseline data were available and used the difference from vehicle for parameters without baseline data.

B1: hFGF7: recombinant human Fibroblast Growth Factor-7, also referred to as EGS0501; SEQ ID NO: 8 is the sequence for human FGF7 (protein, listed as Homo sapiens)
chain: MHKWILTWILPTLLYRSCFHIICLVGTISLACNDMTPEQMATNVNCSSPERHTRSYDYMEGGDIRVRRLFCRTQWYLRIDKRGKVKGTQEMKNNYNIMEIRTVAVGIVAIKGVESEFYLAMNKEGKLYAKKECNEDCNFKELILENHYNTYASAKWTHNGGEMFVALNQKGIPVRGKKTKKEQKTAHFLPMAIT
modifications: (1)..(194) Fibroblast Growth Factor-7
plasma glucose compared to vehicle (hFGF7 0.5 mg/kg ip once a day): significant effect
body weight compared to vehicle (hFGF7 1 mg/kg ip once a day): significant decreases
epididymal white adipose (WATepi) depot weight compared to vehicle (hFGF7 1 mg/kg ip once a day): significant decreases
insulin resistance index (HOMA-IR) compared to vehicle (hFGF7 1 mg/kg ip once a day): significant decreases
plasma glucose compared to vehicle (hFGF7 1 mg/kg ip once a day): significant decreases
plasma insulin compared to vehicle (hFGF7 1 mg/kg ip once a day): significant decreases
plasma leptin compared to vehicle (hFGF7 1 mg/kg ip once a day): significant decreases
